The series in a line: yeast display, Sf9 membrane polyspecificity reagent, FACS + sequencing; frameworks hold sequencing errors. The method, boiled down: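 Synthetic nanobody libraries on Saccharomyces cerevisiae BJ5465 were galactose-induced for 36–48 hours, stained 1 hour at 4 °C with 10% biotinylated, detergent-solubilized Sf9 membrane reagent and enriched on streptavidin microbeads. FACS then separated cells into low and high (top ~1%) gates by anti-HA (expression) and streptavidin (reagent binding) fluorescence. Genes were colony-PCR amplified, MiSeq 2 × 250 sequenced and CDR-length filtered. A clone's polyreactivity label is that of its gate of origin.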
With “QVQHVESGGGLVQAGGSLRLSCAASGIIFSEYAMGWYRLAPGKERELVAVISRSGGRTYYADSVKGRFTISRDNAKNTVYFQMNSLKPEDTAVYYCAVVHKTFTGDYWGQGTQVTVSS”, the “polyreactivity (PSR sort gate)” value is on record as “high polyreactivity”.

With “QVQLVESGGGLVQAGGRLRLSCAASGSTITYYTMGWYRQAPGKERELVAAISGSGGRTYYADSVKGRFTISRDNAKNTVYLQMNSLKPEDTAVYYCAAVYQLSRYDYWGQGTQVTVSS”, the “polyreactivity (PSR sort gate)” value is “high polyreactivity”. In the case of “QVQLEESGGGLVQAGGRLRLSCAASGGNFNYYPMGWYREAPGKERELVAAITRGGSTYYADSVKGRFTISRDNAKNTVYLQMNSLKPEDTAVYYCAAGWRRYDKSPLEGSWGQGTQVTLSS” it was “high polyreactivity”; in that of “QVQLVESGGGLVQAGGSLRLSCAASGLIFRPYAMGWYRQAPGKERELVAGINSGGNTDYADTVKGRFTISRDNAKNTVYLQMNSLKPEDTAVYYCNREYQVTIYDYWGQGSQVTVSS”, “low polyreactivity”.

In the case of “QVQLVESGGGLVQAGGSLRLSCAASGRIFRWYAMGWYRPAPGKERELVAAISRSGTSTYYADSVKGRFTISRDNAKNTVYLQMNSLKPEDTAVYDCAADRTGRIVLSPTDEMDYWGQGTQVTVSS”, the “polyreactivity (PSR sort gate)” value was “low polyreactivity”.

Turning to “QVQLVESGGGLVQAGGSLRLSCAASGFIFYAYAMGWYRQAPGKERELVAAITRSGGSTYYADSVKGRFTISRDNAKNTVYLQMNSLKPEDTAVYYCAARQRTKLGYWGQGTQVTVSS”, the “polyreactivity (PSR sort gate)” value is “high polyreactivity”. The result for “QVQLVESGGGLVQAGGSLRLSCAASGRTFVYNAMGWYRQAAGKEWELVAAISSDGASTYYADSVKGRFTISRDNAKNTAYLQMNSLKPEDTAVYYCAADFSYYSYEHYYWGQGTQVTVSS” reads “low polyreactivity”; that for “QVQLVESGGGLVQAGGSLRLSCAASGFTFTRNTMGWYRQAPGKERELVAAITRGGSTNYADSVKGRFTITRDNAKNTVYLQMNSLKPEDTAVYYCAADAPFDRPYNYWGQGTQVTVSS”, “low polyreactivity”; that for “QVQLVESGGGLVQAGGSLRLSCAASGNTFLPYAMGWYRQAPGKERELVAAISWSGGSTYYADSVKGRFTISRDNAKNTVYLQMNSLKPEDTAVYYCARRGYQRYLSSYYYWGQGTQVTVSS”, “high polyreactivity”.

On to “QVQHVESGGGLVQAGGILRLSCAASGFTFPAYTMGWYRQAPGKERELVAAITSSGGNTYYADSVKGRFTISRDNAKNTLCLQMNSLKPEDTAVYYCATVSVRWPSNDHVRYDYWGQGTQVTVSS”, for which the “polyreactivity (PSR sort gate)” value is “low polyreactivity”.

As for “QVQLVESGGGLVQAGGSLRLSCAASGSILPYYAMGWYRPAPGKERELVATITDGTDTYYADSVKGRFTISRDNAKNTVYLQMTSLKPEDTAVYYCARKQYWGYDYWGQGTQVTVSS”, the “polyreactivity (PSR sort gate)” value is listed as “low polyreactivity”. The result for “QVQLVESGGGLLQAGGSLRLSCAASGRIFHYYAMGWYRQAPGKERELVAGIETSGGSTYYADSVNWRFTISRDNAKNTVYLKLNSLKPEDTAVYYCATDQYYSYDYVYWGQGTQVTVSS” reads “low polyreactivity”.

In the case of “QVQLVESGGGLVQAGGSLRLSCAASGRTFSRNAMGWYRQAPGKERELVAAITKGGGSTYYADSVKGRFTISRDNAKNTVYLQMNSLKPEDTAVYYCAAYKPSTRRYDYWGQGTQVTVSS”, the “polyreactivity (PSR sort gate)” value was “high polyreactivity”. The result for “QVQLVESGGGLVQAGGSLRLSCSASGRIISFYVMGWYRQAPGKDRELVAAISLSGGSTYYADSVKGRFTISRDNAKNTVYLQMNSLKPEDTAVYYCAADQTLVGLPYNYWGQGTQLTVSS” reads “high polyreactivity”; that for “QVQLVESGGGLVQAGGSLRLSCAASGITFKTYAMGWYRQAPGKVRELVATITRGSRTNYADSVKGRFTISRDNAKNTVYLQMNSLKREHTAVYYCAAHYTTFIRSPDGDYLGQGTQVTVSS”, “low polyreactivity”; that for “QVQLVESGGGLVQAGGSLRLIFAASGRIFRPNAMGWYRQAPGKEREFVAAITSSSGTTYYADSVKGRFTISRDNAKNTVYLQMNSLKPEDSAVYYCAAKYTSRSYKYDYWGQGTQVTVSS”, “high polyreactivity”. In the case of “QVQLVESGGGLVQAGGSLRLSCAASGFTFTYYAMGWYRPAPGKERELVAAISTGGSTYYADSVKGRFTISRDNAKNTVYLQMNSLKPEDTAVYYCNAKPRYRKADRLDYWGQGTQVTVSS” it was “high polyreactivity”; in that of “QVQLVESGGGLVQAGGSLRLSCAASGLIFSWYAMGWYRQAPGKEREFVAGISKGGDSTYYADSVKGRFTISRDNAKNTVYLQMNSLKPEDTAVYYCAADWWQGTSHYWGGAYNYWGQGTQVTVSS”, “low polyreactivity”; in that of “QVQLVESGGGLVQAGGSLRLSCAASGNTVNFYAMGWYREAPGKERELVASITSGGGTNYADSVKGRFTISRDNAKNTVYLQMNSLKPEETAVYFCAAQFYYHFRFHCDWGQGTQVTVSS”, “low polyreactivity”.

Take “QVQLVESGVGLVKAGGSLRLSCAASGSTFNGYGMGWYRQAPGKERELVAAMSWSGGSTYYADSVKGRFTISRDNAKNTGYLLMNSLKPEDTAVYYCAALTHYGGYGYTYDYWGQGTQVTVSS”: the “polyreactivity (PSR sort gate)” value is on record as “low polyreactivity”. “QVQLVESGGGLVQAGGSLRLSCAASGFIFPEYAMGWYRQAPGKERELVAAINWSGGNTYYADSVKGRFTISRDNAKNTVYLQMNSLKPEDTAVYYCNVDEWVTDDDYWGQGTEVTVSS”: the “polyreactivity (PSR sort gate)” value is “low polyreactivity”.

Turning to “QVQLVESGGGLVQAGGSLRLSCAASGYTFSAYAMGWYRQAPGKERELVAVINRSGVRTYYADSVKGRFTISRDNAKNTVYLQMNSLKPEDTAVYYCAAPPRANLFDYWGQGTQVTVSS”, the “polyreactivity (PSR sort gate)” value is “high polyreactivity”. As for “QVQLVESGGGLVQAGGSLRLSCAASGSTFPLNAMAWYRHAPGKERELVAAITWSGANTYYADSVKGRFTISRDNAKNTVYLQMNSLKPEDTAVYYCAAGSYAGFAVIGYYYWGQGTQVTVSS”, the “polyreactivity (PSR sort gate)” value was “low polyreactivity”. The result for “QVQLVESGGGLVQAGGSLRLSCAASGFTFYGYAMGWYRQAPGKERELVAGITSSGGSTHYADSVKGRFTISRDNAKNTVYLQMNSLKPEDTAVYYCAKVWSFPSNYRAYYYWGQGTQVTVSS” reads “high polyreactivity”. In the case of “QDQLVESGGGLVQAGGSLRLSCAASGYIFITKAMGLNRQAPGKERELVAAINSGGSTYYADSVKGRFTISRDNAKNTVYLQMKSLKPEDTAVYYCAAEYWVYYWHYYDYWGQGTQVTVSS” it was “high polyreactivity”; in that of “QVQLVESGGGLVQAGGSLRISCAASGLTLTSNDMGWYRQAPGKEREFVASITWSGGSTSYADSVKGRFTISRDNAKNTVYLQMNSLKPEDTAVYYCAARPRYFSKSWRGYYYWGQGTQVNVSS”, “high polyreactivity”.

As to “QVQLVESGGGLVQAGGSLRLSCAASRSIFSIYAMGWYRQAPGKERELVAAITWGGGSTYYADSVKGRFTISRDNAKNTVYLQMNSLKPEDTALYYCAADSLTWYGTYYYWGQGTQVTVSS”, the “polyreactivity (PSR sort gate)” value was “high polyreactivity”. The result for “QGQLVESCGCLVQAGGSLRLSCAASGSTFVVYDMGWYRQAPGKERELVAAITWSGGSTYYADSVKGRFTISRDNAKNTVYLQMNSLKPEDTAVYYCNKVTWHQGHDYWGQGTQVTVSS” reads “low polyreactivity”; that for “QVQLVESGGGLVQAGGSLRLSCASSGSTFVYNVMGRYRQAPGKERDLVAAISRSGGSTYYADSVKGRFTISRDNAKNSVYLQMNSLKPEDTAVYYCAKRVYGWWYDHWGQGTQVTVSS”, “high polyreactivity”; that for “QVQLVDSGGGLVQAGGSLRLSCAASGSIFVGNAMGWYRQAPGKERELVAAISWRGGRTYYADSVKGRFTISRDNAKYTVYLQMNSLKPEDTAVYYCATVKARDYGYWGQGTQVTVSS”, “high polyreactivity”.

Consider “QVQLGESGGGLVQAGGSLRLSCAASGRIFSYYAMGWYRPAPGKERELVAAISYRGSSTNYADSVKGRFTISRDNAKNTVYFQMNSLKPEDTAVYYCATKFFRTAYEYWGQGTQVTVSS”, for which the “polyreactivity (PSR sort gate)” value is listed as “high polyreactivity”.

As to “QVQLVESGGGLVQAGGSLRLSCAASGSIFSANAMGWYRQAPGKERELVAAITSGDSTKYADSVKGRFTISRDNAKNTVYLQMNSLKPEDTAVYYCAVDRGEYKNRVGEEYWGQGTQVTVSS”, the “polyreactivity (PSR sort gate)” value was “low polyreactivity”. In the case of “QVQLVESGGGLVQAGGSLRLSCAASGSIFYYYVMGWYIQAPGKERELVAAISSGGGTNYADSVKGRFTISRDNAKNSVYLQMNSLNPEDTAVYYGAKASAYGLANDYDYWGQGTQVTVSS” it was “low polyreactivity”; in that of “QVQLVESGAGLVKAGGSLRLSCASSGRILDFYDMGWYRQAPGKERELVAAITSGTSTYYADSVKGRFTISRDNAKYTVYLQMNSLKPEDTAVYYCAAAHVPVGQYVYWYDYWGQGTQVTVSS”, “low polyreactivity”.

As to “QVQLVQSGGGLVQAGGSLRLSCAASGRIFPRYGMGWYRQAPGKERELCADITSSGSTYADSVKGRFTISRDNAKNTDYLQMHSLKPEDTAVYYCNALDRRLSYSWRYRQLYDYWGQGTQGTVSS”, the “polyreactivity (PSR sort gate)” value was “high polyreactivity”. With “QVQLVESGGGIVQAGGSLRLSCAASGFTFIYYAMGWYRQAPGKERELVAGISSGGRTSYADSVKGRFTISRDNAKNTVYFQMNSLKPEDTAVYYCATPVSRFRRTEYGYYYWGQGTQVSVSS”, the “polyreactivity (PSR sort gate)” value is given as “high polyreactivity”. In the case of “QVHLVESGGGLVQAGGSLRLSCAASGITFYRYAMGWYRQAPWKERELVAAITVGGRTYYADSVKGRFTISRDNAKNNVYLQMNSLKPEDTAVYYCNVRTLHSVRGYYYWGQGTQVTVSS” it was “high polyreactivity”.

For “QVQLVESGGGLVQAGGSLRLSCAASGRIFYPNVMGWYRQAPGKERELVAAITWSSGSTYYADSVKGRFTISRDNAKNTVYLQMNSLKPEDTAVYYCAAGLRWHRKFYYWGQGTQVTVSS”, the “polyreactivity (PSR sort gate)” value is recorded as “high polyreactivity”. In the case of “QVQLVESGGGLVQAGGSLRLSCAASGFIFGWNAMGWYRQAPGKVREFVAAITSSGTSTYYADSVKGRFTISRDNAKNTVYLQMNSLKPEDTAVYYCAADVIFTWLAYSTEYDYWGQGTQVTVSS” it was “low polyreactivity”; in that of “QVQLGESGGGLVQAGGTLRVSCAPSGITFYGYAMGWYRQAPGKERELVAAINRGGTGTYYADSVKGRFTISRDNAKNTVYLQMNSLKPEDTAVYYCNKAGYPIADPTAGKRQFDNWGHGTQVTVSS”, “low polyreactivity”; in that of “QVQLVESGGGLVQAGGSLRLSCAASGSIFGFNTMGWYRQAPGKERELVATINWSGGSTYYADSVKGRFTISRDNAKNTVYLQMNSLKPEDTAVYYCNAGPFSGRLFTTYASRGRYDYWGQGTQVTVSS”, “low polyreactivity”.

For the origin of these results see the nanobody polyreactivity screen of Harvey et al. (2022).
